Biological target: the molecule itself
Test: crystal structure

B1: 14-3-3θ protein (natural protein)
chain: EKTELIQKAKLAEQAERYDDMATCMKAVTEQGAELSNEERNLLSVAYKNVVGGRRSAWRVISSIEQKTDTSDKKLQLIKDYREKVESELRSICTTVLELLDKYLIANATNPESKVFYLKMKGDYFRYLAEVACGDDRKQTIDNSQGAYQEAFDISKKEMQPTHPIRLGLALNFSVFYYEILNNPELACTLAKTAFDEAIAELDTLNEDSYKDSTLIMQLLRDNLTLWTSDSAG
  stoichiometry N: 2

Reference: publication PMC7578760 (iScience, 2020)
